Measured values reported in patent US20240350441A1, “PHARMACEUTICAL FORMULATION AND A PROCESS FOR ITS PREPARATION” (SAVA HEALTHCARE LTD, priority 2021, published 2024).

Legend:
Format in all cases: in vivo, Female Swiss Albino mice
[1] = tested on: Cyclophosphamide induced hepatotoxicity and renal changes; assay: Hepatic and renal parameters in cyclophosphamide induced neutropenia (Example 10); details: for BUN (blood urea nitrogen) / SGOT Serum glutamic oxaloacetic transaminase / SGPT (Serum glutamic pyruvic transaminase) / Serum Creatinine / Uric acid: day 10, G-CSF 2 μg s.c., others 1 tablet per animal per day for 5 days
Procedure: (§1) • 1. To induce neutropenia by administration of cyclophosphamide. • 2.
(§2) Materials: Female Swiss Albino mice weighing between 25-27 g was procured from Global Bioresearch Solutions Pvt Ltd., Pune.
(§3) On day 0, blood was withdrawn from all animals for basal hematological parameters. All the groups of animals except placebo group were injected with 150 mg/kg of cyclophosphamide through intraperitoneal route (i.p.), while group 1 was injected with water for injection, i.p. On Day 3, blood was withdrawn from all animals for Total and differential count (neutrophils, lymphocytes, and monocytes). The animals of group 2 to 7 were dosed with one additional dose of 100 mg/kg cyclophosphamide on Day 4. […] The cyclophosphamide control group was injected with water for injection from day 5 to day 9. On day 10, blood was withdrawn from all animals for total and differential count (neutrophils, lymphocytes, and monocytes), platelets, liver parameters AST (aspartate aminotransferase), ALT (alanine aminotransferase), and renal parameters—serum creatinine, blood urea nitrogen and uric acid.
(§4) • Pure Picroside 1—1 tablet was dissolved in 0.1 ml of sterile water for injection and 0.1 ml was injected as subcutaneous injection. • The degraded Picroside 1 without salt (cinnamic acid of the present disclosure)—1 tablet was dissolved in 0.1 ml of sterile water for injection and 0.1 ml was injected as subcutaneous injection. • The Cinnamic acid low dose (0.6 mg/tablet) treated tablet was dissolved in 0.1 ml of sterile water for injection and 0.1 ml was injected as subcutaneous injection. • The Cinnamic acid high dose treated (6 mg/tablet) tablet was dissolved in 0.1 ml of sterile water for injection and 0.1 ml was injected as subcutaneous injection.

[2] = tested on: Cyclophosphamide induced hepatotoxicity; assay: Cyclophosphamide induced hepatotoxicity, AST/ALT (Example 9); details: for ALT (alanine aminotransferase) / AST (aspartate aminotransferase): day 10, after 5 days treatment from day 5, GCSF 2 μg
Procedure: (§5) Female Swiss Albino mice were randomized into different groups based on body weight as follows: • Group 1—cyclophosphamide control (CP control), • Group 2—pure Picroside 1 treated, • Group 3—the degraded Picroside 1 with salt and • Group 4—GCSF (granulocyte colony stimulating factor) treated groups. • On day 0, blood was withdrawn from all animals for basal hematological parameters. The animals of all the groups were injected with 150 mg/kg of cyclophosphamide through intraperitoneal route (i.p.). On Day 3, blood was withdrawn from all animals for total and differential count (neutrophils, lymphocytes, and monocytes). The animals were dosed with one additional dose of 100 mg/kg cyclophosphamide on Day 4. From day 5, the animals were administered with respective treatments through oral route in water as vehicle while group 1 was administered with placebo tablets for 5 consecutive days. On day 10, blood was withdrawn from all animals for Total and differential count (neutrophils, lymphocytes, and monocytes), WBCs, Platelets and AST (aspartate aminotransferase) and ALT (alanine aminotransferase).

[3] = tested on: Cyclophosphamide induced neutropenia; assay: Cyclophosphamide induced neutropenia, hematological parameters (Example 10)
Procedure: as §1, §2, §3, §4

[4] = tested on: Cyclophosphamide induced neutropenia; assay: Cyclophosphamide induced neutropenia, hematological changes (Example 9)
Procedure: • 1. To induce neutropenia in mice by administration of cyclophosphamide. • 2. To determine the effect of treatments of pure Picroside 1 and the degraded Picroside 1 with salt on total WBC count, neutrophils, monocyte, lymphocytes and platelet count. • 3. To compare the effect of pure Picroside 1 and the degraded Picroside 1 with salt standard 2 μg G-CSF.
Cyclophosphamide was procured from Sigma Aldrich and G-CSF was procured from marketed formulation of Lupin limited, Lupifil (300). Female Swiss Albino mice weighing between 25-27 g were procured from National Institute of Biosciences, Pune.
as §5

[5] = compared to cyclophosphamide control group, Example 9
[6] = Day 0, basal, G-CSF 2 μg, Picroside tablets groups
[7] = Day 3, after cyclophosphamide, before treatment, G-CSF 2 μg, Picroside tablets groups
[8] = Day 10, treated day 5 for 5 days, G-CSF 2 μg s.c., others 1 tablet per animal per day
[9] = Day 0, basal, before cyclophosphamide
[10] = Day 3, after cyclophosphamide 150 mg/kg i.p., before treatment
[11] = Day 10, after 5 days treatment from day 5, GCSF 2 μg
[12] = vs CP control, cinnamic acid at both 0.6 mg/tablet low dose and 6 mg/tablet high dose
[13] = vs CP control, day 10, cinnamic acid at both 0.6 mg/tablet low dose and 6 mg/tablet high dose

Molecule: O=C(/C=C/c1ccccc1)OC[C@H]1O[C@@H](O[C@@H]2OC=C[C@H]3[C@H](O)[C@@H]4O[C@]4(CO)[C@@H]23)[C@H](O)[C@@H](O)[C@@H]1O [Pure Picroside 1, Picroside 1]
- BUN (blood urea nitrogen) [1]: 9.483 mmol/L
- SGOT Serum glutamic oxaloacetic transaminase [1]: 25.67 IU/L
- SGPT (Serum glutamic pyruvic transaminase) [1]: 28.5 IU/L
- Serum Creatinine [1]: 46.8 µM
- Uric acid [1]: 30.00 mg/L
- Hepatic and renal parameters in neutropenic animal model ([1]; inference from table 8B, as compared to GCSF): improved hepatic and renal parameters
- Effect on ALT [2, 5]: significant reversal (p<0.001)
- Effect on AST [2, 5]: significant (p<0.001) decrease in AST
- ALT (alanine aminotransferase) [2]: 37.32 ± 0.66 IU/L
- AST (aspartate aminotransferase) [2]: 43.66 ± 2.68 IU/L
- % Lymphocytes [3, 6]: 44.33%
- % Monocytes [3, 6]: 6.00%
- % Neutrophils [3, 6]: 41.00%
- No of Platelets [3, 6]: 735700 per cu · mm of blood
- Total WBC Count [3, 6]: 7301 per cu · mm of blood
- % Lymphocytes [3, 7]: 84%
- % Monocytes [3, 7]: 1.50%
- % Neutrophils [3, 7]: 6.50%
- No of Platelets [3, 7]: 631700 per cu · mm of blood
- Total WBC Count [3, 7]: 2365 per cu · mm of blood
- % Lymphocytes [3, 8]: 58.67%
- % Monocytes [3, 8]: 5.00%
- % Neutrophils [3, 8]: 28.33%
- No of Platelets [3, 8]: 626800 per cu · mm of blood
- Total WBC Count [3, 8]: 3674 per cu · mm of blood
- Anti-neutropenic activity (words) ([3]; inference from table 8A): shows better anti-neutropenic activity
- % Lymphocytes [4, 9]: 40.32 ± 1.56%
- % Monocytes [4, 9]: 7.32 ± 0.32^ %
- % Neutrophils [4, 9]: 43 ± 0.68%
- Platelet Count [4, 9]: 741600 ± 3476 per cu · mm of blood
- WBC Count [4, 9]: 7410 ± 414.90 per cu · mm of blood
- % Lymphocytes [4, 10]: 80.00 ± 1.92%
- % Monocytes [4, 10]: 1.50 ± 0.34^ %
- % Neutrophils [4, 10]: 7 ± 0.92%
- Platelet Count [4, 10]: 647900 ± 26900 per cu · mm of blood
- WBC Count [4, 10]: 1562 ± 145.90 per cu · mm of blood
- % Lymphocytes [4, 11]: 72.00 ± 1.46 %
- % Monocytes [4, 11]: 4.50 ± 0.34 %
- % Neutrophils [4, 11]: 12.66 ± 0.66 %
- Platelet Count [4, 11]: 653300 ± 26550 per cu · mm of blood
- WBC Count [4, 11]: 4380 ± 333.30 per cu · mm of blood
- Effect on % lymphocytes [4, 5]: significant (p<0.01) reduction in % lymphocytes
- Effect on % monocytes [4, 5]: significantly reversed
- Effect on platelet count [4, 5]: improved the platelet count significantly (p<0.001)
- Effect on total WBC count [4, 5]: significantly (p<0.001) reversed the cyclophosphamide induced decrease in WBC count
- Effect on % neutrophil ([4]; compared to cyclophosphamide/placebo control group, Example 9): significantly (p<0.01) alleviated the cyclophosphamide-induced neutropenia

B1: GCSF: glycoprotein that stimulates the bone marrow to produce granulocytes and stem cells; marketed formulation of Lupin limited (protein, UniProt P09919 31-207, looked up)
Granulocyte …: TPLGPASSLPQSFLLKCLEQVRKIQGDGAALQEKLVSECATYKLCHPEELVLLGHSLGIPWAPLSSCPSQALQLAGCLSQLHSGLFLYQGLLQALEGISPELGPTLDTLQLDVADFATTIWQQMEELGMAPALQPTQGAMPAFASAFQRRAGGVLVASHLQSFLEVSYRVLRHLAQP
modifications: filgrastim (Lupifil)
notes: glycoprotein that stimulates the bone marrow to produce granulocytes and stem cells; marketed formulation of Lupin limited
- BUN (blood urea nitrogen) [1]: 9.633 mmol/L
- SGOT Serum glutamic oxaloacetic transaminase [1]: 32.17 IU/L
- SGPT (Serum glutamic pyruvic transaminase) [1]: 34.33 IU/L
- Serum Creatinine [1]: 44.5 µM
- Uric acid [1]: 26.33 mg/L
- Effect on BUN level [1, 12]: significant (p<0.001) decrease in BUN level
- Effect on SGOT level [1, 12]: significant (p<0.001) reduction in SGOT
- Effect on serum creatinine level [1, 12]: significant (p<0.001) reduction in creatinine level
- Effect on uric acid level [1, 12]: significant decrease in uric acid levels (p<0.001)
- Effect on AST [2, 5]: significant (p<0.001) reduction in AST
- ALT (alanine aminotransferase) [2]: 36.16 ± 0.70 IU/L
- AST (aspartate aminotransferase) [2]: 45.16 ± 2.72 IU/L
- % Lymphocytes [3, 6]: 45.5%
- % Monocytes [3, 6]: 6.00%
- % Neutrophils [3, 6]: 41.33%
- No of Platelets [3, 6]: 752200 per cu · mm of blood
- Total WBC Count [3, 6]: 7255 per cu · mm of blood
- % Lymphocytes [3, 7]: 83.5%
- % Monocytes [3, 7]: 1.833%
- % Neutrophils [3, 7]: 6.667%
- No of Platelets [3, 7]: 645800 per cu · mm of blood
- Total WBC Count [3, 7]: 2617 per cu · mm of blood
- % Lymphocytes [3, 8]: 50.17%
- % Monocytes [3, 8]: 5.167%
- % Neutrophils [3, 8]: 36.67%
- No of Platelets [3, 8]: 674900 per cu · mm of blood
- Total WBC Count [3, 8]: 6030 per cu · mm of blood
- Effect on % lymphocytes [3, 13]: significant (p<0.001) decrease in % lymphocytes
- Effect on % monocytes [3, 13]: significantly (p<0.001) reversed
- Effect on platelet count [3, 13]: significant (p<0.05) increase in platelet count
- Effect on total WBC count [3, 13]: significantly (p<0.001) reversed the cyclophosphamide induced decrease in WBC count
- % Lymphocytes [4, 9]: 40.00 ± 3.22%
- % Monocytes [4, 9]: 7.32 ± 0.42%
- % Neutrophils [4, 9]: 42.16 ± 1.74%
- Platelet Count [4, 9]: 732400 ± 7528 per cu · mm of blood
- WBC Count [4, 9]: 7438 ± 626.20 per cu · mm of blood
- % Lymphocytes [4, 10]: 82.50 ± 1.40%
- % Monocytes [4, 10]: 1.32 ± 0.22%
- % Neutrophils [4, 10]: 7.16 ± 0.48%
- Platelet Count [4, 10]: 637100 ± 38470 per cu · mm of blood
- WBC Count [4, 10]: 1580 ± 235.00 per cu · mm of blood
- % Lymphocytes [4, 11]: 59.32 ± 2.24 %
- % Monocytes [4, 11]: 5.66 ± 0.48 %
- % Neutrophils [4, 11]: 26.00 ± 1.66 %
- Platelet Count [4, 11]: 690300 ± 15510 per cu · mm of blood
- WBC Count [4, 11]: 4518 ± 406.00 per cu · mm of blood
- Effect on % lymphocytes [4, 5]: reversed cyclophosphamide-induced lymphocyte recruitment significantly (p<0.001)
- Effect on platelet count [4, 5]: significant increase in platelet count
- Effect on total WBC count [4, 5]: significantly (p<0.001) reversed the cyclophosphamide induced decrease in WBC count
